This note sets out measurements from the nanobody polyreactivity screen of Harvey et al. (2022).

The nature of this data set: yeast display, Sf9 membrane polyspecificity reagent, FACS + sequencing; frameworks hold sequencing errors. Put shortly:
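Galactose induction of a Saccharomyces cerevisiae BJ5465 synthetic nanobody display library ran 36–48 hours. The cells were then stained for 1 hour at 4 °C with 10% biotinylated, detergent-solubilized Sf9 membrane reagent, pulled down on streptavidin microbeads and FACS-sorted into low and high (top ~1%) gates on expression and reagent-binding fluorescence. Labels for polyreactivity follow the gate of origin.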
Regarding “QVQHVESGGGLVQAGGSLRLSCAASGSIFAYYAMGWYRQAPGKERELVAAISYRGGSTYYADSVKGRFTISRDNAKNTVYLQMNSLKPEDTAVYYCNAGGRRRIFAHSSTGDYWGQGTQVTVSS”, the “polyreactivity (PSR sort gate)” value is “high polyreactivity”.

In the case of “QVQLAESGGCLVQAGGSLRLSCAASGIIFYFYAMGWYRPAPGKERELVAAISGTGGRTYYADSVKGRFTISRDNAKNTVSLQMNSLKPDDTAVYYCNADDTPVPSIRFDYWGQGTQVTVSS”, the “polyreactivity (PSR sort gate)” value is recorded as “low polyreactivity”. Regarding “QVQLVESGGGLVQAGGSLRLSCAASGSIFKINAMGWYRQAPWKERDFVAAITWSGGSTYYADSVKGRFTISRDNAKHTVYLQMNSLKPEDTAVYYCNARYFNYSTFGGKMGYWGQGTQVTVSS”, the “polyreactivity (PSR sort gate)” value is “high polyreactivity”.

With “QVHLVESGGGLVQAGGSLRLICAASGFTFAVYAMGWYRQAPGKERELVAAISRSSGRTYYADSVKGRFTISRDNAKNTVYLQMNSLKPEDTAVYYCNARRGSPAPYDYWGQGTQVTVSS”, the “polyreactivity (PSR sort gate)” value is reported as “high polyreactivity”.

In the case of “QVQLVESGGGLVQAGGSLRISCAASGNIFSVNAMGWYRQAPGKEREFVAAISGSGGSTYYADSVKGRFTISRDNAKNTVYLQMNSLKPEDTAVYYCAKRWYHPSSLPRYVFRGVDYWGQGTQVTVSS”, the “polyreactivity (PSR sort gate)” value is given as “high polyreactivity”. For “QVQLVESGGGLVQAGGSLRLRCAASGSTFAYYAMGWYRQAPGKERELVAAITASATNTYYADSVKGRFTISRDHAKNTVYLQMNSLKPEDTAVYYCAADDVDVEHQASWDDYDSWGQGTQVTVSS”, the “polyreactivity (PSR sort gate)” value is reported as “low polyreactivity”.

On to “QVQLVESGGGLVQAGGSLRLSCAASGFTFDSYAMGWYRQAPGKERELVAAITSTGGSTYYADSVKGRFTISRDTAKNTVYLQMNSLKPEDTAVYYCAARGGYYKRGYWGQGTQVTVSS”, for which the “polyreactivity (PSR sort gate)” value is reported as “high polyreactivity”. On to “QVQLVESGGGLVQAGGSLRLSCPASGRTFWYYAMGWYRQAPGKVRELVAAITWSGSDTYYADSVKGRFTISRDNAKNTVYVQMNSLKPEDTAVYFCAAEYYYESSGYDYWGQGTQVTVSS”, for which the “polyreactivity (PSR sort gate)” value is on record as “high polyreactivity”.

In the case of “QVQLVESWGGLVQAGGSLPLRCAASGRTFVQYAMGWYRQAPGKERELVAAISLSGGRTYYADSVKGRFTISRDNAKNTVYLQMNSLKPEDTAVYYFSARDSSRYYWGQGTQVTVSS”, the “polyreactivity (PSR sort gate)” value is recorded as “high polyreactivity”.

With “QVQLVESGGGLVQAGGSLRLSCAASGFTLLIYAKGWYRQAPGKERELVAAITWRGSGTYYADSVKGRFTISRDIAKNSVYLQMNSLKPEDTAVYYCAARTARRTYDYWGQGTQVTVSS”, the “polyreactivity (PSR sort gate)” value is on record as “low polyreactivity”. Take “QVQLVESGGGLVQAGGSLRLICAASGRTFYYYAMGWDRQAPGKERELVASISYSAGRTYADSVKGRFTISRDNAKNTVYLLMNSLKPEDTAVYYCAAALYVNPYNYGTARWYYYWGQGTQVTVSS”: the “polyreactivity (PSR sort gate)” value was “high polyreactivity”. As to “QVQLVESGGGLVQAGGSLRLSCAASGSIFRVYAMGWYRQAPGKERELVAAISKSGSSTYYADSVKGRFTISRDNAKNTVYLQMNSLKPEDTAVYYCAARRVLGEYGYWGQGTQVTVSS”, the “polyreactivity (PSR sort gate)” value was “high polyreactivity”.

In the case of “QVQFVESGGGLVQAGGSLRLSCAASGFTFVWYDMGWYRQAPGKERELVAAISSGGSTYYADSVKGRFTISRDNAKNTVYLQMNSLKPEDTAVYYCAVYTGYYNYIYQYDYWGQGTQVTVSS”, the “polyreactivity (PSR sort gate)” value is listed as “low polyreactivity”. Take “QVPLEESRGGLVQAGGSLRLSCAASGTIFVAYDMGWYRQAPGKERELVAAIDSVGRTNYADSVKGRFTISRDNAKNTVYLQMNSLKPEDTAVYYCNADQYYSFYDPDDYWGQGTQVTVSS”: the “polyreactivity (PSR sort gate)” value is given as “low polyreactivity”. Take “QVQLGESGGGIVQAGGSLRLSCAASGIIFARYAMGWSRQAPGKERELVAAISRRGTSTYYADSVKGRFTISRDNAKNTVYLQMNSLKPEDTALYYCAARQLFYLPGPRVDAWGQGTQVTVSS”: the “polyreactivity (PSR sort gate)” value is listed as “high polyreactivity”. With “QVQLVESGGGLVQAGGSLRLSCAASGSIFLENTMGWYRQAPGKERELVAAITSSGDSTYADSVKGRFTISRDNAKNTVYLQMNSLKPEDTAVYYCNKDYDDIAPTRAVLDRYDYWGQGTQVTVSS”, the “polyreactivity (PSR sort gate)” value is reported as “low polyreactivity”.

“QVQLVESGGGLVQAGGSLRLSCAASGITFRDYAMGWYRQAPGKERELVAAISTRGVRTYYADSVKGRFTISRDNAKNTVYLQMNSLKPEDTAVYYCAARSVTYWWVGYEFYYWGQGTQVTVSS”: the “polyreactivity (PSR sort gate)” value is recorded as “high polyreactivity”. On to “QVQLVESGGGLVQAGGSLRLSCAASGITLYYYAMGWYRQAPGKEREFVAAITWRGTNTYYADSVKGRFTISRDNAKNTVYLQMNSLKPEDTAVYYCAADYEQRVADYYYWGQGTQVTVSS”, for which the “polyreactivity (PSR sort gate)” value is reported as “low polyreactivity”. For the sequence “QVQLVESGGGLVQAGGSLRLSCAASGIILPQNAMGWYRQAPGKERELVAAISKSGGRTYYADSVKGRFTISRDNAKNTVYLQMNSLKPEDTAVYYCAAVVRRAPEFDYWGQGTQVTVSS”, the “polyreactivity (PSR sort gate)” value is recorded as “high polyreactivity”. With “QVQLVESGGGLVQAGGSLRLSCAASGSTFNGYVMGWYRQAPGKERELVAAISRSGGSTYYADSVKGRFTISRDNAKNTVYLQMNSLKPEDTAVYYCAVQRKSSKRAFRYGYWGQGTQVTVSS”, the “polyreactivity (PSR sort gate)” value is “high polyreactivity”. Regarding “QVQLVESGGGLVQAGGSLRLSCAASGRTFGYYVMGWYRQAPGKERELVAAISRSGGTTYYADSVKGRFTISRDNAKNTVYLQMNSLKPEDTAVYYCATDSRTGYDYWGQGTQVTVSS”, the “polyreactivity (PSR sort gate)” value is recorded as “high polyreactivity”. Regarding “QVQLVESGGGLDQAGGSLRLSCAASGRIFSPNAMGWYRQAPGKERELVAAISRIGGRTYYADSVKGRFTISRDNAKNTVYLQMNSLKPEDTGVFYCNVVATHTDFTYDFWGQGTQVTVSS”, the “polyreactivity (PSR sort gate)” value is recorded as “high polyreactivity”.

On to “QVQLVESGGGLVQAGGSLRLSCAASGFIFTYYAMGWFRQAPGKERELVAVISWSGGTTYYADSVKGRFTISRDNAKNTVYLQMNSLKPEDTAVFYCNARSLAKLPRSSVRVEYDYWGQGTQVTLSS”, for which the “polyreactivity (PSR sort gate)” value was “low polyreactivity”. Under “QVQLVESGGGLVQAGGSLRLSCAASGFTIGDNAMGWSRQAPGKERELVAAITWSGGSTYYADSVKGRFTISRDNAKNTVYLQMNSLKPEDTAVYYCAADKLRELDYWGQGTEVTVSS” stands “low polyreactivity”. With “QVQRVESGGGLVQAGGSLRLSCAACGLTFRQYAMVWYRQAPGKERELVAAIRSRGGSTYYADSVKGRFTISRDNAKNTVYFQMNSLKPEDTAVYYCAAGGRGWWLYRYNFFSEMDYWGQGTQVTVSS”, the “polyreactivity (PSR sort gate)” value is “high polyreactivity”.

For “QVQHVESGGGLVQAGGSLRLSCAASGYIFKGNVMGWYRQAPGKERELVAAISRSGGRTYYADSVKGRFTISRDNAKNTVYLQLNSLKPDDTAVFYCFTKHRTKPTRPVDYWGQGTQVTVSS”, the “polyreactivity (PSR sort gate)” value was “high polyreactivity”. The same measure for “QVQLVESGGGLVQAGGSLRLSCAASGNTFSDYAMGWYRQAPGKERELVAAISSSGVRTYYADSVKGRFTISRDNAKNTVYLQMNSLKPEDTAVYYCNAGYVRRYYPASGYGYWGQGTQVTVSS”: “high polyreactivity”; for “QVQLQESGGGLVQAGGSLRLSCAESGYISHAVEMGWYRQAPGKVHELVASISNGGSTNYADSVKGRFTISRDNAKNTVYLQMNSLKSEDTAVYYCAAWTGQVDIHSYWGQGTQVSVSS”: “low polyreactivity”; for “QVQLVESGGGLVQAGGSLLLSCAASGSTFTQYAMGWYRQAPGKERELVAAINSRGDSTYYADSVKGRFTISRDNAKNTVYLQMNSLKPEDTAVYYCAKDPFPWALFDYWGQGTQVTVSS”: “low polyreactivity”.

In the case of “QVQLVESGGGLVQAGGSLRLSCAASGRIFVRNAMGWYRQAPGKERELVAAISWRGTSTYYADSVKGRFTISRDNAKNTVYLQMNSLKPEDTAVYYCAKRISGYRGDYWGQGTQVTVSS”, the “polyreactivity (PSR sort gate)” value is “high polyreactivity”. The same measure for “QVQLVESGVGLVQAGGSLRLSSAASGSIFHSYAMGWYRQAPGKERELVASITASGDSTYYADSVKGRFTISRDNAKNTVYLPMNSLKPEDTAVFYCNTQAVYGGGEGGYDYWGQGTQVTVSS”: “low polyreactivity”; for “QVQLVESGGGLVQAGGSLRLSCAASGSIFVRNTMGWYRQAPGKERELVATISSGGRTNYADSVKGRFTISRDNAKNTVYLQMNSLKPEDTAVYYCNRPRWYGGSPYYYWGQGTQVTVSS”: “high polyreactivity”; for “QVQLVESGGGLVQAGGSLRISCAASGITITSYAMGWYRQAPGKEWELVASIDSDDSTNYADSVKGRFTISRDNAKNTVYFQMNSLKPEDNAVYYSAATSKPLGLKTYGYWGQGTQVTVSS”: “low polyreactivity”. Turning to “QVQLVESGGGLVQAGGSLRLSCAASGFIFNLYAMGWYRQAPGKERELVAAISSGGGTSYADSVKGRFTISRDNAKNTVYLQMNSLKPEDTAVYYCAAGYKRRYYWKGYTRYDYWGQGTQVTVSS”, the “polyreactivity (PSR sort gate)” value is “high polyreactivity”.

As for “QVQLVESGGGLVQAGGSLRLSCAASGSTCWFYAMGWYRQAPGKEREVVATITSGGNTTYADSVKGRFTISRDNAKNTVYLQMNSLKPEDTAVYYCAAGWQAPWGYYYHFEYDYWGQGTQVTVSS”, the “polyreactivity (PSR sort gate)” value is given as “low polyreactivity”. The same measure for “QLQLVESGGGLVQAGGSLRLSCADSGSTFRYNVMGWYRQAPGNETQLVAAIRDSGDRTYYADSVKGRFTISRDNAKNTVYLQMNSLKPEDTAVYYCNARWQEPLKYDYWGQGTQVTVSS”: “low polyreactivity”. Under “QDQLVDSGGGLVQAGGSLRLSCAASGRIIFYYTMGSYSQAPGKESELVAAINSTGSTNYADSVKGRFTISRDNAKNTVYLQMNSLKPEDTAVYYCNAGTRYIFLYPPFLGAAFDYWGQGTQVTVSS” stands “low polyreactivity”. The same measure for “QVQLVESGGGLVQAGGSLRLSCAASGSIFGVYAMGWYRQAPGKERELVAAISWSGTSTYYADSVKGRFTISRDNAKNTVYLQMNSLKPEDTAVYYCNGDWVLDGYDYDSWGQGTQVTVSS”: “low polyreactivity”. As for “QVQLVESGGGLVQAGGSLRLSCAASGSTFRYNAMGWYRQAPGKERELVAAITSTGDSTYYADSVKGRFTISRDNAKNTVYLQMNSLKPEVTAVYYCAARSYASPGWRYEFWGQGTQVTVSS”, the “polyreactivity (PSR sort gate)” value was “low polyreactivity”. In the case of “QVQLEESGVGVVLAGGSRSLSCAASGRIFQYNAMGWNRQAPGKERELVAAISYRGGSTYYADSVKGRFTISRDNAKYTVYLQLNSLKPEDTAVYYCAVEYPVYYYVEYDYWGQGTQVTVSS”, the “polyreactivity (PSR sort gate)” value is “high polyreactivity”.
